Test results taken from patent publication US20200171163A1 (Daiichi Sankyo, published 2020).

T1: cynomolgus monkey CDH6 (on cells) (cynomolgus monkey, UniProt P55285 54-790 (human entry))
T1 construct: Expressed from pcDNA3.1-cynoCDH6; also called cynoCDH6
T1 sequence: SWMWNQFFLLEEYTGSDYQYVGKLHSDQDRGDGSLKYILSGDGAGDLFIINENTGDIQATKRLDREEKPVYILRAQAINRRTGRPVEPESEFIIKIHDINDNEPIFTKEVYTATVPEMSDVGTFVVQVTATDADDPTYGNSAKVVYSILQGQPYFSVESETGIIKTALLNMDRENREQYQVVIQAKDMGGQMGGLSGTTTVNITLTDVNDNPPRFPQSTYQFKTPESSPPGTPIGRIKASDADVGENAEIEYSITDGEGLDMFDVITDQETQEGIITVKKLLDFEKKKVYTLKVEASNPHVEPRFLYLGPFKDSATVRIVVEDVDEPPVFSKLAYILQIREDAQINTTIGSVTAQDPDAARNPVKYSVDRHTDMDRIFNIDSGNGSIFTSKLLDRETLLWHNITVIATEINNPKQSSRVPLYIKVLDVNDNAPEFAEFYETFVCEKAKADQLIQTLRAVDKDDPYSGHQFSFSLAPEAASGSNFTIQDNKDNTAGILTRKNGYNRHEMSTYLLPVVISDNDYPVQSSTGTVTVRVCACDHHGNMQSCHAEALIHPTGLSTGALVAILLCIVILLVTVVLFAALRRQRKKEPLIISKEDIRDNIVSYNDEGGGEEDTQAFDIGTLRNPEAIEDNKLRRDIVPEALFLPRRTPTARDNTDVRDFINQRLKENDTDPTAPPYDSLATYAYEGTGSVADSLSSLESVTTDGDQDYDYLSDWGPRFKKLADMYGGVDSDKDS

T2: EC3 deletion mutant of human CDH6 (human, UniProt P55285 54-790)
T2 construct: In p3×FLAG-CMV-9; also called EC3-deleted hCDH6
T2 sequence: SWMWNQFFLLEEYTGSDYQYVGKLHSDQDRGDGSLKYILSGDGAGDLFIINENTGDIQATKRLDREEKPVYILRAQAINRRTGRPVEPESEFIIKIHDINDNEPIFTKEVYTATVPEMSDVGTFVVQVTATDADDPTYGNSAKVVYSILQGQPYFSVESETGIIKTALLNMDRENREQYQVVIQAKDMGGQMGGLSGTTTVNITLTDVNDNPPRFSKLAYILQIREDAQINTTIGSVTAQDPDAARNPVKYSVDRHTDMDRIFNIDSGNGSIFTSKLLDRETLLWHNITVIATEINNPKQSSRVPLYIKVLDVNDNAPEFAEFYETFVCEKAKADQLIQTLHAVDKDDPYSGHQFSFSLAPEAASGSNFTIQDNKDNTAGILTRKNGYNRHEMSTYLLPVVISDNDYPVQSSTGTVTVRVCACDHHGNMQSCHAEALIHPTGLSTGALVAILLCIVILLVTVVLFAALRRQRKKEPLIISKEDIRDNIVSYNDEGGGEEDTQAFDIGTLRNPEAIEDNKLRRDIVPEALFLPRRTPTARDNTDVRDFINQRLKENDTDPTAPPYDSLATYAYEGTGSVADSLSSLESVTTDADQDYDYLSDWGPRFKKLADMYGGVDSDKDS


Assays:
[1] = target: T1, cynomolgus monkey CDH6 (on cells); assay: Cell-ELISA and flow cytometry screening of hybridoma supernatants on transfected cells
Method: A coloring reaction was carried out with occasional stirring. Thereafter, 1 M HCl was added to the plate (100 μL/well) to terminate the coloring reaction, followed by measurement of the absorbance at 490 nm using a plate reader (ENVISION: PerkinElmer, Inc.).
The binding specificity to cynomolgus monkey CDH6 of an antibody produced from the human CDH6- and cynomolgus monkey CDH6-binding antibody-producing hybridomas that had been selected by Cell-ELISA in Example 1)-4 was further confirmed by flow cytometry. […] Thereafter, the cells were suspended by the addition of the culture supernatant from each hybridoma. The cells were left standing at 4° C. for 1 hour. The cells were washed twice with PBS supplemented with 5% FBS, and thereafter, the cells were suspended by the addition of Anti-Rat IgG FITC conjugate (Sigma-Aldrich Co. LLC) that had been 500-fold diluted with PBS supplemented with 5% FBS. The cells were left standing at 4° C. for 1 hour. The cells were washed twice with PBS supplemented with 5% FBS, and then re-suspended in PBS supplemented with 5% FBS and 2 μg/ml 7-aminoactinomycin D (Molecular Probes, Inc.), followed by detection using a flow cytometer (FC500; Beckman Coulter, Inc.). The data was analyzed using FlowJo (Tree Star, Inc.). After dead cells were removed from analysis by gating out 7-aminoactinomycin D-positive cells, a histogram of the FITC fluorescence intensity of live cells was generated.

[2] = target: T2, EC3 deletion mutant of human CDH6; assay: flow cytometry; 293α cells transfected with EC3-deleted hCDH6 (open) vs untransfected control cells (shaded); anti-rat IgG-FITC
Method: The cells were cultured overnight under conditions of 37° C. and 5% CO₂, and thereafter, a cell suspension was prepared. […] Thereafter, the cells were suspended by the addition of each of the 4 rat anti-CDH6 monoclonal antibodies (clone Nos: rG019, rG055, rG056 and rG061), which had been prepared in Example 1)-7, or rat IgG control (R&D Systems, Inc.) (final concentration: 20 nM). The cells were left standing at 4° C. for 1 hour. The cells were washed twice with PBS supplemented with 5% FBS, and then suspended by the addition of Anti-Rat IgG (whole molecule)-FITC antibody produced in rabbit (Sigma-Aldrich Co. LLC) that had been 50-fold diluted with PBS supplemented with 5% FBS. The cells were left standing at 4° C. for 1 hour. The cells were washed twice with PBS supplemented with 5% FBS, followed by detection using a flow cytometer (Canto II; BD Biosciences). The data was analyzed using FlowJo (Tree Star, Inc.). In the histograms of FIGS. 2-1 to 2-6, the abscissa depicts FITC fluorescence intensity indicating the amount of the antibody bound, and the ordinate depicts cell count. […] Fluorescence intensity is enhanced when the antibody binds to full-length hCDH6 or each EC domain deletion mutant on the surface of cells. The rat IgG control binds to none of the transfected cells.

Binder	binding result [1]	binding result [2]
rG019 antibody (antibody, V domains shown, Rat monoclonal purified from hybridoma; also called rat anti-CDH6 monoclonal antibody clone rG019) VH: QVQLQQSGAELVKPGSSVKISCKASGYTFTRNFMHWIKQQPGNGLEWIGWIYCGDGETEYNQKFNGKATLTADRSSSTAYMELSRLTSEDSAVYFCARGVYGGFAGGYFDFWGQGVMVTVSS VL: DIQMTQSPSLLSASVGDRVTLNCKASQNIYKNLAWYQQKLGEGPKLLIYDANTLQTGIPSRFSGSGSGSDFTLTISSLQPEDVATYFCQQYYSGWAFGGVTNLELKRA	binds	no binding (tested: 20 nM (single concentration))
rG055 antibody (antibody, V domains shown, Rat monoclonal purified from hybridoma; also called rat anti-CDH6 monoclonal antibody clone rG055) VH: EVQLQESGPGLVRPSQSLSLSCSVTDYSITSNYWGWIRRFPGNKMEWMGYITYSGYTSYNPSLQSRISITRDTSKNQFFLQLNSVTAEDTATYYCARSINHGGYSYVVDAWGPGASVTVSS VL: DVQMTHSPSYLAASPGESVSISCKTSKNISNYLVWYQQKPGEAYKLLIYSGSTLQSGTPSRFSGSGSGTDFTLTIRSLEPEDFGLYFCQQYYEKPFTFGSGTKLEIKR	binds	no binding (tested: 20 nM (single concentration))

Continued, in another order:

binding result [1]	Binder	binding result [2]
binds	rG061 antibody (antibody, V domains shown, Rat monoclonal purified from hybridoma; also called rat anti-CDH6 monoclonal antibody clone rG061) VH: EVQLQESGPGLVKPSQSLSLTCSVTGYSITTYYWGWIRKFPGNKMEWMGYISYSGRTSYNPSLKSRMSITRDASKNQFFLQLNSVTTDDTATYYCARSPINHGGYWYFDFWGPGTMVTVSS VL: DVQMTQSPSYLAASPGESVSISCKATKSISNYLAWYQQKPGEAYKVLIYSGSTLQSGTPSRFSGSGSGTDFTLTIRSLEPEDFGLYSCQQYYEKPLTFGSGTKLEIKR	no binding (tested: 20 nM (single concentration))
binds	rG056 antibody (antibody, V domains shown, Rat monoclonal purified from hybridoma; also called rat anti-CDH6 monoclonal antibody clone rG056) VH: EVQLQESGPGLVKPSQSLSLTCSVTDYSITTYFWGWIRKFPGNKMEWMGYMSYRGGTSYNPSLKSRISITRDTSKNQFFLQLNSVTTEDTATYYCARCPNYGGHSLVFDYWGQGVMVTVSS VL: DVQMTQSPSSLAASPGESVSISCRATKSIGIYLAWYQQKPGKTFKLLIYSGSTLQSGTPSRFSGSGSGTDFTLTIRSLEPEDFGLYFCQQFYENPFTFGSGTKLEIRR	no binding (tested: 20 nM (single concentration))
